Source: paper PMC4110014

Experiments:
[1] = target: Caldendrin full length (UniProt O88751); assay: cross-linking + SEC; protein incubated with 0.01% glutaraldehyde, then Superdex 75 gel filtration
[2] = target: Caldendrin full length (UniProt O88751); assay: SEC; Superdex 75, ÄKTA FPLC, 50 mM Tris, 100 mM KCl, 500 µM Mg2+ with 200 µM EGTA or 100 µM Ca2+; monomer to dimer
[3] = target: Caldendrin full length (UniProt O88751); assay: dynamic light scattering; Zetasizer Nano S, 25°C, 50 mM Tris, 100 mM KCl, Mg2+ with EGTA or with 50 µM Ca2+; monomer to dimer
[4] = target: Caldendrin full length (UniProt O88751); assay: SPR; Biacore X-100, CM5 chip, ligand amine-coupled, 25°C, flow 10 µl/min; running buffer with 1 mM Mg2+/1 mM EGTA (column 'EGTA'); molar binding activity deduced from the dissociation phase
[5] = target: Caldendrin full length (UniProt O88751); assay: SPR; Biacore X-100, CM5 chip, ligand amine-coupled, 25°C, flow 10 µl/min; running buffer with 1 mM Mg2+/500 µM Ca2+ (column 'Ca2+'); molar binding activity deduced from the dissociation phase
[6] = target: Caldendrin-C-terminus (Caldendrin-Ct, residues 137–298) (UniProt O88751); assay: SPR; Biacore X-100, CM5 chip, ligand amine-coupled, 25°C, flow 10 µl/min; running buffer with 1 mM Mg2+/1 mM EGTA (column 'EGTA'); molar binding activity deduced from the dissociation phase
[7] = target: Caldendrin-C-terminus (Caldendrin-Ct, residues 137–298) (UniProt O88751); assay: SPR; Biacore X-100, CM5 chip, ligand amine-coupled, 25°C, flow 10 µl/min; running buffer with 1 mM Mg2+/500 µM Ca2+ (column 'Ca2+'); molar binding activity deduced from the dissociation phase

Caldendrin-C-terminus (Caldendrin-Ct, residues 137–298), O88751 137-298 (domain or fragment; other documents disagree on this pair), sequence (O88751 137-298): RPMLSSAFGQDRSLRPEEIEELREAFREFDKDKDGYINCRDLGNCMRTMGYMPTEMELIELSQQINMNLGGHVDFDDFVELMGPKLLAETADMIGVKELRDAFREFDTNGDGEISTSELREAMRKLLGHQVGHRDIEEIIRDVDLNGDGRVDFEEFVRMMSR

stoichiometry N [1] | stoichiometry N [2] | stoichiometry N [3] | molar binding activity [4] | molar binding activity [5] | molar binding activity [6] | molar binding activity [7] | Substance
2 | 2 | 2 | 0.0215 | 0.0757 |  |  | Caldendrin full length (from UniProt O88751 1-298) (natural protein)
 |  |  |  |  | 0.0541 | 0.0373 | Caldendrin-C-terminus (Caldendrin-Ct, residues 137–298), O88751 137-298 (domain or fragment; other documents disagree on this pair)
